In paper PMC4327562, “Emergence of terpene cyclization in Artemisia annua” (Nature Communications, 2015):

Test system: CC(C)=CCC/C(C)=C/CC/C(C)=C/CO[P@@](=O)(O)OP(=O)(O)O
Test: purified protein
Conditions: 5 mM MgCl2, pH 7.0, 30 °C, inorganic pyrophosphatase coupled

Chain of (E)-β-farnesene synthase (BFS), A. annua BFS (Artemisia annua) (chain, as listed by the source): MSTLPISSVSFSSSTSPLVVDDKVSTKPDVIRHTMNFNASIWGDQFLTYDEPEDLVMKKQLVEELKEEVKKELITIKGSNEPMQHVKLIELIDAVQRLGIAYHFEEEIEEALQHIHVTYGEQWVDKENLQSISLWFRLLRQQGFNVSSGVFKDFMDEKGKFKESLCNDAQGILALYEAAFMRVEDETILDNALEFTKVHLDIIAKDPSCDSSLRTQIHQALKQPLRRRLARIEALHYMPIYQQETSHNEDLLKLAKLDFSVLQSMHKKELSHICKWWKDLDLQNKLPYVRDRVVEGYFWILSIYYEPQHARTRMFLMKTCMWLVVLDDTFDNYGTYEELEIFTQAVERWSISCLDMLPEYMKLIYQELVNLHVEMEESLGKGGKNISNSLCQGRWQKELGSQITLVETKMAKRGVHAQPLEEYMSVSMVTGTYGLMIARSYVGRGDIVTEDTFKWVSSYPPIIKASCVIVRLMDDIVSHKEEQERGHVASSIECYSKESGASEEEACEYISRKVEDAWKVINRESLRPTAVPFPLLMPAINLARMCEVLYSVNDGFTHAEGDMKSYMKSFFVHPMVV

(E)-β-farnesene synthase (BFS), A. annua BFS (Artemisia annua)
Km: 16.19 µM | kcat: 0.17 s⁻¹ | kcat/Km: 10500 M⁻¹ s⁻¹
